Experimental findings from article PMC10207099, “Nitrogen Fixation and Hydrogen Evolution by Sterically Encumbered Mo-Nitrogenase” (JACS Au, 2023) are described below.

Assay [1] deals with Strep-inhibited α-C45A/L158C MoFe protein (Azotobacter vinelandii) (UniProt P07328). In words: SEC; analytical gel filtration of MoFe protein pre-treated with 5 molar equivalents of L127Δ Fe protein. On the technique in general: Size exclusion chromatography separates by hydrodynamic size, large species first.
The target of assay [2] is T1, NifK (ß subunit) of the MoFe protein (Azotobacter vinelandii, UniProt P07329 1-523).
T1 construct: Nitrogenase molybdenum-iron protein beta chain (NifK, ß subunit), Azotobacter vinelandii; The ß chain of m1 and m2, written alone; also called ß-subunit/NifK; source: A. vinelandii strain M1 (derivative of RS1), purified as part of the MoFe protein (HisTrap HP, Q-Sepharose)
T1 sequence: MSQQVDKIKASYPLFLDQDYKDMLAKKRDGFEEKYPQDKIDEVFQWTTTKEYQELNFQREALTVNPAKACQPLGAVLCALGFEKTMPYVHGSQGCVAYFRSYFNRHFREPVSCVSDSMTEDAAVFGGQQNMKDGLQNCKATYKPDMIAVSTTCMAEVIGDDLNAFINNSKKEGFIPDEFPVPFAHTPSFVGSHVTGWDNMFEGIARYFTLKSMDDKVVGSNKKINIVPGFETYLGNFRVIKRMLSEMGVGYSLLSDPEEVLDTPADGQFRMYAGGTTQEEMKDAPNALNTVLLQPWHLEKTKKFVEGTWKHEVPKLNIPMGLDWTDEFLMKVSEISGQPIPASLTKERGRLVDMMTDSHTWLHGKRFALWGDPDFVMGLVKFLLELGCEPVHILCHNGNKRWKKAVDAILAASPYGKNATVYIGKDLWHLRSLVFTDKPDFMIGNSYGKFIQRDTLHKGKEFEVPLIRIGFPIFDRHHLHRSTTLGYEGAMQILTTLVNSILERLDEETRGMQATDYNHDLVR
In words: native gel or EMSA; anoxic native-PAGE of the MoFe protein alone. The settings on record: both partners purified. For orientation: A gel shift assay detects complexes by their altered migration in electrophoresis.

Take “L127Δ Fe protein (non-ATP-hydrolyzing NifH2 mutant) (enzyme)”: in assay [1], the percent of the broadened MoFe peak that is MoFe:Fe1 complex (multi-Gaussian peak analysis) worked out at 68%.

B1: NifD (α subunit) of the Strep-inhibited α-C45A/L158C MoFe protein (natural protein, Azotobacter vinelandii)
chain: GMSREEVESLIQEVLEVYPEKARKDRNKHLAVNDPAVTQSKKAIISNKKSQPGLMTIRGCAYAGSKGVVWGPIKDMIHISHGPVGCGQYSRAGRRNYYIGTTGVNAFVTMNFTSDFQEKDIVFGGDKKLAKLIDEVETLFPLNKGISVQSECPIGCIGDDIESVSKVKGAELSKTIVPVRCEGFRGVSQSLGHHIANDAVRDWVLGKRDEDTTFASTPYDVAIIGDYNIGGDAWSSRILLEEMGLRCVAQWSGDGSISEIELTPKVKLNLVHCYRSMNYISRHMEEKYGIPWMEYNFFGPTKTIESLRAIAAKFDESIQKKCEEVIAKYKPEWEAVVAKYRPRLEGKRVMLYIGGLRPRHVIGAYEDLGMEVVGTGYEFAHNDDYDRTMKEMGDSTLLYDDVTGYEFEEFVKRIKPDLIGSGIKEKFIFQKMGIPFREMHSWDYSGPYHGFDGFAIFARDMDMTLNNPCWKKLQAPWEASEGAEKVAASA
peptide: GGGWSHPQFEK
modifications: C158 joined by thiol-maleimide Michael addition to the peptide maleimide-GGGWSHPQFEK | N-terminal maleimide, joined to C158 of the α subunit
notes: Nitrogenase molybdenum-iron protein alpha chain (NifD, α subunit), Azotobacter vinelandii; The α chain of m2, written alone; in the sample only part of the α subunits carry the peptide; also called Strep-modified α subunit
For B1, in assay [2], the binding result is reported as “binds”.
